T1: SLC38A2 (human, UniProt Q96QD8)
T1 construct: expressed on the surface of HEK293 cells in a cell microarray spot
T1 sequence (single chain, looked up): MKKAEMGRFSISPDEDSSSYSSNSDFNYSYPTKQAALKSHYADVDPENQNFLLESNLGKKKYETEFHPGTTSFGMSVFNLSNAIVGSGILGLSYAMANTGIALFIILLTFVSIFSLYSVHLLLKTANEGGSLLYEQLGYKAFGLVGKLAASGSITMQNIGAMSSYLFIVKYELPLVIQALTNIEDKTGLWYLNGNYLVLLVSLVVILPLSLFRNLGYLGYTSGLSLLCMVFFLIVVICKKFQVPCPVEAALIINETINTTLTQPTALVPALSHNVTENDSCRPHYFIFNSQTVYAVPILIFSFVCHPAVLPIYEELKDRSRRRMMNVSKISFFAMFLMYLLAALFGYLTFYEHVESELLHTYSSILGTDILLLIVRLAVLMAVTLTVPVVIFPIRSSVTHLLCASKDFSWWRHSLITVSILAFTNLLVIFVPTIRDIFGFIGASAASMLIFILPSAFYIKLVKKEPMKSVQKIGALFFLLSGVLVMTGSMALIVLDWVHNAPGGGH

T2: CD86 (human, UniProt P42081)
T2 construct: expressed on the surface of HEK293 cells in a cell microarray spot; target of the positive control
T2 sequence (single chain, looked up): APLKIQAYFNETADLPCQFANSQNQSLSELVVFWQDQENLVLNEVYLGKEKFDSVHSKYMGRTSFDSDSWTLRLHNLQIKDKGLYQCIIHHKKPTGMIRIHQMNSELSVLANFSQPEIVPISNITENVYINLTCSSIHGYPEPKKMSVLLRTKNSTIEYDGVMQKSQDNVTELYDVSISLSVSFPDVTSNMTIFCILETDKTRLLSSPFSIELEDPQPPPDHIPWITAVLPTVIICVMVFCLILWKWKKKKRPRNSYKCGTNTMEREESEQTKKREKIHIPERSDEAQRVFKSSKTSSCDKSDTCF

B1: anti-GPRC5D-203 VL/VH scFv (SEQ ID NO: 8) fused to an mIgG2a Fc (Fc fusion, not shown: a dimerising Fc or GST; small tags and cut ends)
scFv: SSELTQDPAVSVALGQTVRITCQGDSLRSYYASWYQQKPGQAPVLVIYGKNNRPSGIPDRFSGSSSGNTASLTITGAQAEDEADYYCNSRDSSGNPPVVFGGGTKLTVLGSRGGGGSGGGGSGGGGSLEMAQVQLVESGGGLVHPGGSLRLSCAASGFTFRSHSMNWVRQAPGKGLEWVSSISSDSTYTYYADSVKGRFTISRDNAKNSLYLQMNSLRAEDTAVYYCARSGGQWKYYDYWGQGTLVTVSS
notes: also called scFv-Fc
B2: GPRC5D-204 scFv clone (scFv, V domains shown)
VH: EVQLVESGGGLVQPGGSLRLSCAASGFTFSNYAMSWVRQAPGKGLEWVSAISGSGNTYYADSVKGRFTISRDNSKNTLYLQMNSLRAEDTAVYYCARGSVRYTDIWGQGTLVTVSS
VL: NFMLTQPHSVSESPGKTVSISCTRTSGAIAGAYVQWFQQRPGSAPTTVIYDDNKRPSGVPDRFSGSIDKSSNSASLTISGLKTEDEADYYCQSYDYDSSNVLFGGGTKLTVLG
notes: Human scFv from a phage display library
B3: GPRC5D-206 scFv clone (scFv, V domains shown)
VH: QVQLVQSGAEVKKPGASVKVSCKASGYTFTSYYMHWVRQAPGQGLEWMGIINPSGGSTRYAQKFQGRVTMTRDTSTSTVYMELSSLRSEDTAVYYCARGSSRWGGWTGDYWGQGTLVTVSS
VL: QSALTQPASVSGSPGQSITISCTGTSSDVGGYNFVSWYQQHPGKAPKVMIYDVSKRPSGISNRFSGSKSGNTASLTISGLQVEDEAEYYCSSYTSTRTVIFAGGTKVTVLG
notes: as for B2
B4: GPRC5D-202 scFv clone (scFv, V domains shown)
VH: EVQLVESGGGLVKPGGSLRLSCAASGFTFSDYYMSWIRQAPGKGLEWVSYISSSGSTIYYADSVKGRFTISRDNAKNSLYLQMNSLRAEDTAVYYCARGYGKAYDQWGQGTLVTVSS
VL: QSVLTQPPSASGTPGQRVTISCSGSRSNVGGNYVFWYQQVPGATPKLLIYRSNQRPSGVPDRFAGSKSGSSASLAISGLRSEDEADYYCATWDDSLSGFVFGTGTKVTVLG
notes: as for B2
B5: GPRC5D-200 scFv clone (scFv, V domains shown)
VH: EVQLVESGGAFVQPGGSLRLSCAASGFTFSSYAMTWVRQAPGKGLEWVSTISGRGRSTFYADSVKGRFTISRDNSKNTLYLQMNSLRAEDTAVYYCARYYHAGAFDLWGQGTLVTVSS
VL: QSVVTQPASVSGSPGQSITISCTGTSSDVGGYNYVSWYQQHPGKAPKLMIYDVSKRPSGVSNRFSGSKSGNTASLTISGLQAEDEADYYCSSYTSSSTLVFGGGTKLTVLG
notes: Human scFv from a B cell-derived phage display library
B6: GPRC5D-203 scFv clone (scFv, V domains shown)
VH: QVQLVESGGGLVHPGGSLRLSCAASGFTFRSHSMNWVRQAPGKGLEWVSSISSDSTYTYYADSVKGRFTISRDNAKNSLYLQMNSLRAEDTAVYYCARSGGQWKYYDYWGQGTLVTVSS
VL: SSELTQDPAVSVALGQTVRITCQGDSLRSYYASWYQQKPGQAPVLVIYGKNNRPSGIPDRFSGSSSGNTASLTITGAQAEDEADYYCNSRDSSGNPPVVFGGGTKLTVLG
notes: as for B2
B7: GPRC5D-205 scFv clone (scFv, V domains shown)
VH: EVQLVESGGGLIQPGGSLRLSCAASGFTFSNYAMNWVRQAPGKGLEWVSTINGRGSSTIYADSVKGRFTISRDNSKNTLYLQMNSLRAEDTATYYCARYISRGLGDSWGQGTLVTV
VL: QSVVTQPPSMSAAPGQQVTISCSGGNSNIERNYVSWYLQLPGTAPKLVIFDNDRRPSGIPDRFSGSKSGTSATLGITGLQTGDEADYYCGTWDSSLRGWVFGGGTKLTVLG
notes: as for B2
B8: GPRC5D-202 VH/VL - long (anti-GPRC5D CAR) (protein)
chain: EVQLVESGGGLVKPGGSLRLSCAASGFTFSDYYMSWIRQAPGKGLEWVSYISSSGSTIYYADSVKGRFTISRDNAKNSLYLQMNSLRAEDTAVYYCARGYGKAYDQWGQGTLVTVSSGSRGGGGSGGGGSGGGGSLEMAQSVLTQPPSASGTPGQRVTISCSGSRSNVGGNYVFWYQQVPGATPKLLIYRSNQRPSGVPDRFAGSKSGSSASLAISGLRSEDEADYYCATWDDSLSGFVFGTGTKVTVLESKYGPPCPPCPAPPVAGPSVFLFPPKPKDTLMISRTPEVTCVVVDVSQEDPEVQFNWYVDGVEVHNAKTKPREEQFQSTYRVVSVLTVLHQDWLNGKEYKCKVSNKGLPSSIEKTISKAKGQPREPQVYTLPPSQEEMTKNQVSLTCLVKGFYPSDIAVEWESNGQPENNYKTTPPVLDSDGSFFLYSRLTVDKSRWQEGNVFSCSVMHEALHNHYTQKSLSLSLGKMFWVLVVVGGVLACYSLLVTVAFIIFWVKRGRKKLLYIFKQPFMRPVQTTQEEDGCSCRFPEEEEGGCELRVKFSRSADAPAYQQGQNQLYNELNLGRREEYDVLDKRRGRDPEMGGKPRRKNPQEGLYNELQKDKMAEAYSEIGMKGERRRGKGHDGLYQGLSTATKDTYDALHMQALPPR
B9: GPRC5D-201 scFv clone (scFv, V domains shown)
VH: QMQLVQSGAEVKKPGASVKVSCKASGYTFNRYAITWVRQAPGQGLEWMGWISAYNGNSHYAQKLQGRVTMTTDTSTGTAYMELRRLRSDDTAVYYCARMAYDSWGQGTLVTVSS
VL: QSVLTQPASVSGSPGQSLTISCTGTSNDVGAYKYVSWYQQYPGKAPKLILYDVFKRPSGVSNRFSGSKSDNTASLTISGLQAEDEADYYCFSLTSSNTYVFGTGTKVTVLG
notes: as for B2
B10: GPRC5D-203 VL/VH, long spacer CAR but lacking the signaling domains (other)
chain: SSELTQDPAVSVALGQTVRITCQGDSLRSYYASWYQQKPGQAPVLVIYGKNNRPSGIPDRFSGSSSGNTASLTITGAQAEDEADYYCNSRDSSGNPPVVFGGGTKLTVLGSRGGGGSGGGGSGGGGSLEMAQVQLVESGGGLVHPGGSLRLSCAASGFTFRSHSMNWVRQAPGKGLEWVSSISSDSTYTYYADSVKGRFTISRDNAKNSLYLQMNSLRAEDTAVYYCARSGGQWKYYDYWGQGTLVTVSSESKYGPPCPPCPAPPVAGPSVFLFPPKPKDTLMISRTPEVTCVVVDVSQEDPEVQFNWYVDGVEVHNAKTKPREEQFQSTYRVVSVLTVLHQDWLNGKEYKCKVSNKGLPSSIEKTISKAKGQPREPQVYTLPPSQEEMTKNQVSLTCLVKGFYPSDIAVEWESNGQPENNYKTTPPVLDSDGSFFLYSRLTVDKSRWQEGNVFSCSVMHEALHNHYTQKSLSLSLGKMFWVLVVVGGVLACYSLLVTVAFIIFWV
notes: Transiently expressed on HEK293 cells from a cell surface expression vector with cytoplasmic mCherry; also called non-signaling CAR

Columns and labels:
SLC38A2 = target: T1, SLC38A2; assay: cell microarray of HEK293 cells expressing the indicated surface protein, probed with scFv-mIgG2a Fc
Method: (§1) Cell microarrays were assessed for binding by automated fluorescent microscopy with a fluorescently labeled anti-mIgG2a secondary antibody.

CD86 = target: T2, CD86; assay: as above
Method: as §1

EGFR = target: T3, EGFR (human, UniProt P00533); assay: as above
T3 construct: expressed on the surface of HEK293 cells in a cell microarray spot
Method: as §1

[1] = target: T4, human G protein-coupled receptor class C group 5 member D (GPRC5D) (human, UniProt Q9NZD1 1-345); assay: scFv phage clones from panning on hGPRC5D-aAPCs, binding to MM cell lines MM.1S and NCI-H929 (endogenous GPRC5D)
T4 construct: also called hGPRC5D
T4 sequence (Q9NZD1 whole entry): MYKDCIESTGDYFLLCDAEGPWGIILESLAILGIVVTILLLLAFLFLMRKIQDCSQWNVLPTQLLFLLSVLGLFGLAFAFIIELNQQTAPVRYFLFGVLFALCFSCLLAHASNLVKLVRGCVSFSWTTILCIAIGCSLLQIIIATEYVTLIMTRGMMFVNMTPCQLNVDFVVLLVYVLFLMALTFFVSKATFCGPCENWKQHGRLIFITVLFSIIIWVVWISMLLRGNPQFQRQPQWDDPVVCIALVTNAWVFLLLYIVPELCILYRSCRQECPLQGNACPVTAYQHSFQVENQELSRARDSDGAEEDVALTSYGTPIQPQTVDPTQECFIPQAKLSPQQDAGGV

[2] = target: T4, human G protein-coupled receptor class …; assay: ELISA-based epitope mapping on overlapping 15-mer peptides of the GPRC5D extracellular domains linked to scaffolds (linear, conformational, discontinuous)
[3] = target: cynomolgus GPRC5D (cynomolgus); assay: cell-based or functional assay
[4] = target: T4, human G protein-coupled receptor class …; assay: cell-cell interaction by automated flow cytometry: HEK293 cells with the non-signaling GPRC5D-203 long spacer CAR (mCherry) against HEK293 cells each expressing one human GPCR (GFP); Z-score
Method: In parallel, the cDNA of individual receptors from a library of human GPCRs, in a vector expressing cytoplasmic GFP, was transiently expressed in the HEK293 cells. […] Binding was determined using an automated flow cytometric assay that detects cell-cell interaction.

Binder | binding result [1] | binding result [2] | other results
B1 |  |  | binding result (SLC38A2): no binding; binding result (CD86): no binding; binding result (EGFR): no binding
B2 | binds |  | 
B3 | binds |  | 
B4 |  | binds | 
B5 | binds |  | 
B6 |  | binds | 
B7 |  | binds | 
B8 |  |  | interferon gamma release by CAR-transduced NHP T cells [3]: 10000 pg/mL
B9 |  | binds | 
B10 |  |  | binding result [4]: binds
